The target in assay [1] is LAP-TGFβ1 on U937 cells (Homo sapiens) (UniProt P01137). Briefly: flow cytometry dot plot against GARP, U937 cells, Alexa 647 antibody at 10 ug/ml. In general terms: A flow cytometer gives signals particle by particle.
In assay [2] the target is human LAP-TGFβ1 overexpressed on cells (human) (UniProt P01137). Briefly: flow cytometry, transduced HT1080 cells.
Assay [3] deals with human-chicken LAP-TGFβ1 chimera #2 on HT1080 cells (human/chicken chimera). In words: flow cytometry, transduced HT1080 cells.
Sequence of human-chicken LAP-TGFβ1 chimera #2 on HT1080 cells (human/chicken chimera) (chain, as listed by the source mutant limits assumed): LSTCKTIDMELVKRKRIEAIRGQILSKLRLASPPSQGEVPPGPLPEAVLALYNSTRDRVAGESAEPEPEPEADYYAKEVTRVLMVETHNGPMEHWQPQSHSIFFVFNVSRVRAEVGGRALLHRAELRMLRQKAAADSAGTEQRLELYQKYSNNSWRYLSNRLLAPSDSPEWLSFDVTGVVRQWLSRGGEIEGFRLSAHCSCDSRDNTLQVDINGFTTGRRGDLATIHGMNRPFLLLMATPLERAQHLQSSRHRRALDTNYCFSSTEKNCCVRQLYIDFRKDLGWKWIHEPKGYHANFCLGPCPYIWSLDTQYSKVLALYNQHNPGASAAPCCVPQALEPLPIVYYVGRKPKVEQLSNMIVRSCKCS
The target of assay [4] is human-chicken LAP-TGFβ1 chimera #1.3 on HT1080 cells (human/chicken chimera) (UniProt P01137). Briefly: flow cytometry, transduced HT1080 cells.
Sequence of human-chicken LAP-TGFβ1 chimera #1.3 on HT1080 cells (human/chicken chimera) (P01137 other isoform, or with tags, fused parts or gaps mutant): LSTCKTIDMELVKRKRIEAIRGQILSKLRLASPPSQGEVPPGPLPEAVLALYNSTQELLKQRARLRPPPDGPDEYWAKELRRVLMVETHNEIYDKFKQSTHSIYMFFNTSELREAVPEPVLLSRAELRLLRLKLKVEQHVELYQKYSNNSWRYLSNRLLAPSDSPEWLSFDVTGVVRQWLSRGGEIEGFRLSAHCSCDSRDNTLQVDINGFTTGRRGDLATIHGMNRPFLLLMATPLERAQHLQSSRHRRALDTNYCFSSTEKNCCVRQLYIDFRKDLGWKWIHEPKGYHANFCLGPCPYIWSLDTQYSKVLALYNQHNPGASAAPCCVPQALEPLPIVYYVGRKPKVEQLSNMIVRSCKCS
The target in assay [5] is human-chicken LAP-TGFβ1 chimera #1.2 on HT1080 cells (human/chicken chimera) (UniProt P01137). In words: flow cytometry, transduced HT1080 cells.
In assay [6] the target is chicken LAP-TGFβ1 on HT1080 cells (chicken) (UniProt P09531). In words: flow cytometry, transduced HT1080 cells.
Sequence of chicken LAP-TGFβ1 on HT1080 cells (chicken) (P09531 19-391): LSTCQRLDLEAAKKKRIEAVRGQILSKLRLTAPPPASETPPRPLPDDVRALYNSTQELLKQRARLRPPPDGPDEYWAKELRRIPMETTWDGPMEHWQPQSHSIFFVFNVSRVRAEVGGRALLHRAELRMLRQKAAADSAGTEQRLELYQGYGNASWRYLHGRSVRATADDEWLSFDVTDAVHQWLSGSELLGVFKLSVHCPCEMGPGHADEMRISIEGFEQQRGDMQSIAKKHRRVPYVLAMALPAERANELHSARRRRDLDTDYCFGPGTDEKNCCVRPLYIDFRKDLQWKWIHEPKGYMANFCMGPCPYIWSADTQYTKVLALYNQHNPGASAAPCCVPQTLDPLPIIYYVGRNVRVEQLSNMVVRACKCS
The target of assay [7] is human-chicken LAP-TGFβ1 chimera #2.2 on HT1080 cells (human/chicken chimera) (UniProt P01137). In words: flow cytometry, transduced HT1080 cells.
Sequence of human-chicken LAP-TGFβ1 chimera #2.2 on HT1080 cells (human/chicken chimera) (P01137 other isoform, or with tags, fused parts or gaps mutant): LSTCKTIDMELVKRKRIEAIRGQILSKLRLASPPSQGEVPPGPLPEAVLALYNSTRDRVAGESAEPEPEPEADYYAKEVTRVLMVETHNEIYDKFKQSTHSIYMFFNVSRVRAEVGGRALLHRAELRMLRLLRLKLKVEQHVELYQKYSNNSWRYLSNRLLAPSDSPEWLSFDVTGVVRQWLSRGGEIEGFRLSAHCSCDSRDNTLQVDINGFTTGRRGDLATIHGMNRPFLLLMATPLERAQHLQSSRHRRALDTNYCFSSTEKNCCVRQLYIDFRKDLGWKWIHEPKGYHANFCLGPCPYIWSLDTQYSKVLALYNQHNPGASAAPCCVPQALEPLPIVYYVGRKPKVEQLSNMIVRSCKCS
For assay [8], the target named is human-chicken LAP-TGFβ1 chimera #3 on HT1080 cells (human/chicken chimera) (UniProt P01137). In words: flow cytometry, transduced HT1080 cells.
Sequence of human-chicken LAP-TGFβ1 chimera #3 on HT1080 cells (human/chicken chimera) (P01137 other isoform, or with tags, fused parts or gaps mutant): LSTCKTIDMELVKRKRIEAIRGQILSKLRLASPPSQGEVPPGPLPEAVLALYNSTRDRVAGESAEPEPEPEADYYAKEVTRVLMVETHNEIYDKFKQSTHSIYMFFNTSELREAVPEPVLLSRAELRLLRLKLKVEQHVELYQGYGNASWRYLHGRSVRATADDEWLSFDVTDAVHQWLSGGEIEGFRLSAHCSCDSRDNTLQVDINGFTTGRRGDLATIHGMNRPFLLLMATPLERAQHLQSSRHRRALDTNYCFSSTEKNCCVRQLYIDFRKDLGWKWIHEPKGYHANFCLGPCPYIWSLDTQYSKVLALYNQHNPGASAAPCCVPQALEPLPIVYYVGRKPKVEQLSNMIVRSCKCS
Assay [9] concerns the target human-chicken LAP-TGFβ1 chimera #7 on HT1080 cells (human/chicken chimera) (UniProt P01137). In words: flow cytometry, transduced HT1080 cells.
The target in assay [10] is human-chicken LAP-TGFβ1 chimera #6 on HT1080 cells (human/chicken chimera) (UniProt P01137). In words: flow cytometry, transduced HT1080 cells.
Sequence of human-chicken LAP-TGFβ1 chimera #6 on HT1080 cells (human/chicken chimera) (P01137 other isoform, or with tags, fused parts or gaps mutant): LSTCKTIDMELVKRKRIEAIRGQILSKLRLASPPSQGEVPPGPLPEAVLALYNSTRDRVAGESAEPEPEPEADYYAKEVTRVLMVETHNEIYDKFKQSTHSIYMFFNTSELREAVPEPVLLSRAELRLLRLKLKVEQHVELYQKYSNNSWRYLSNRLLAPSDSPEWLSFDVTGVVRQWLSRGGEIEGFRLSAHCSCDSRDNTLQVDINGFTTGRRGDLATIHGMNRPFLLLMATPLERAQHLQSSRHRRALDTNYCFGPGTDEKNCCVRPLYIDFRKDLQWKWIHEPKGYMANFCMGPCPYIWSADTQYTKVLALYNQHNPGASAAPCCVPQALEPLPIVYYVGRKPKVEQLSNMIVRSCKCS
Assay [11] has as its target human-chicken LAP-TGFβ1 chimera #1 on HT1080 cells (human/chicken chimera). Briefly: flow cytometry, transduced HT1080 cells.
In assay [12] the target is human-chicken LAP-TGFβ1 chimera #2.1 on HT1080 cells (human/chicken chimera) (UniProt P01137). In words: flow cytometry, transduced HT1080 cells.
Sequence of human-chicken LAP-TGFβ1 chimera #2.1 on HT1080 cells (human/chicken chimera) (P01137 other isoform, or with tags, fused parts or gaps mutant): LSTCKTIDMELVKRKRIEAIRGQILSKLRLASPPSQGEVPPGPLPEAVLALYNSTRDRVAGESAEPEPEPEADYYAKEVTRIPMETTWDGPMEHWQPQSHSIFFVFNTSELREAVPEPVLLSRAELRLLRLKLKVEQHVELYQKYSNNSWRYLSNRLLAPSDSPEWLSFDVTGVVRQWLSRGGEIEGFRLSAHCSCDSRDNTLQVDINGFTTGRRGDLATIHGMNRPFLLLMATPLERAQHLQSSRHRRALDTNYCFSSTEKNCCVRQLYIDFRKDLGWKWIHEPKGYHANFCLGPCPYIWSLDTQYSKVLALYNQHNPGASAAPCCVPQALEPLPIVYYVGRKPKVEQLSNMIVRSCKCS
The target of assay [13] is human-chicken LAP-TGFβ1 chimera #4 on HT1080 cells (human/chicken chimera) (UniProt P01137). In words: flow cytometry, transduced HT1080 cells.
Sequence of human-chicken LAP-TGFβ1 chimera #4 on HT1080 cells (human/chicken chimera) (P01137 other isoform, or with tags, fused parts or gaps mutant): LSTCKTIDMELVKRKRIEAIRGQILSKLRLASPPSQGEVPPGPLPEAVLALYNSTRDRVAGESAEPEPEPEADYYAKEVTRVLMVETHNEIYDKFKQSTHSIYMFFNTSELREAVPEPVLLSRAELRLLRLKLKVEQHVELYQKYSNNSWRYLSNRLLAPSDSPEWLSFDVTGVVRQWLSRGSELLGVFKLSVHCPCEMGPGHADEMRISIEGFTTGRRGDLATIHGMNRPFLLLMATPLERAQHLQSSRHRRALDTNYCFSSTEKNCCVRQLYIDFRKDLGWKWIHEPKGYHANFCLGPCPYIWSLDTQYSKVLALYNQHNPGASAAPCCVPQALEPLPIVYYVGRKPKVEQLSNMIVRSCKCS
The target of assay [14] is human-chicken LAP-TGFβ1 chimera #5 on HT1080 cells (human/chicken chimera). Briefly: flow cytometry, transduced HT1080 cells.
Sequence of human-chicken LAP-TGFβ1 chimera #5 on HT1080 cells (human/chicken chimera) (chain, as listed by the source mutant limits assumed): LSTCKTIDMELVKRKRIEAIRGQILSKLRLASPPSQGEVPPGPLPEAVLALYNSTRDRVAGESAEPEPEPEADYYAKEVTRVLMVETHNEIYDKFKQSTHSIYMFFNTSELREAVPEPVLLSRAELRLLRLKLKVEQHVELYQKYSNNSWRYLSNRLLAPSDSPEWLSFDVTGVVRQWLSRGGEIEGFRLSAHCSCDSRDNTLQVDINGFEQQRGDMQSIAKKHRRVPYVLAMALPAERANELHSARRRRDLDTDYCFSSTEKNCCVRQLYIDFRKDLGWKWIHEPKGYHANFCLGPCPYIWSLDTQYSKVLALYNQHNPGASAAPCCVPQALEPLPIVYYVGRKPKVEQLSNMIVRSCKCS

Sequence of LAP-TGFβ1 on U937 cells (Homo sapiens) (P01137 30-390 limits assumed): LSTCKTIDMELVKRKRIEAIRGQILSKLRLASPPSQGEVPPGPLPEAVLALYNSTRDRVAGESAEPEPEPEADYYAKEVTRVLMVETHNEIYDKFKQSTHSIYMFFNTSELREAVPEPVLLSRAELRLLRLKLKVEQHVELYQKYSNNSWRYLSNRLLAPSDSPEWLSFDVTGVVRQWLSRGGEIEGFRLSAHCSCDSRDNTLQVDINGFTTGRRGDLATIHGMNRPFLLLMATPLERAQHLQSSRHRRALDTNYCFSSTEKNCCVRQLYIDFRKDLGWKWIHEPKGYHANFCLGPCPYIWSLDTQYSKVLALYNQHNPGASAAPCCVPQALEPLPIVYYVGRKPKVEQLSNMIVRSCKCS
Sequence of human LAP-TGFβ1 overexpressed on cells (human) (P01137 30-390): as the sequence (P01137 30-390 limits assumed) above
Sequence of human-chicken LAP-TGFβ1 chimera #7 on HT1080 cells (human/chicken chimera) (P01137 other isoform, or with tags, fused parts or gaps mutant): as the sequence (P01137 30-390 limits assumed) above, with A331T, E333D, V338I, K344N, P345V, K346R, I354V, S357A counted along it
Sequence of human-chicken LAP-TGFβ1 chimera #1 on HT1080 cells (human/chicken chimera) (chain, as listed by the source mutant limits assumed): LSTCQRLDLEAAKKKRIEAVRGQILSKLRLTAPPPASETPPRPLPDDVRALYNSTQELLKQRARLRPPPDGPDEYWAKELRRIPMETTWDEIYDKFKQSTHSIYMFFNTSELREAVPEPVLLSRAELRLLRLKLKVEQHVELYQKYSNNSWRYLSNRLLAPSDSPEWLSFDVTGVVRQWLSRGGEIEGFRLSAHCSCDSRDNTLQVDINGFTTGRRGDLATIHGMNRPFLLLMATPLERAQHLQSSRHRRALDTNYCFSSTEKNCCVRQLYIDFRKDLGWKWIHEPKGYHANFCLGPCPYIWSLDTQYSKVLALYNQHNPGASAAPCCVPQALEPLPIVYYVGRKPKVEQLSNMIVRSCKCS

On to Isotype Control (antibody), for which, in assay [1], the % of cells in Q1 (antibody axis positive, GARP negative) is 16.2% and the % of cells in Q2 (antibody axis positive, GARP positive) was determined as 0.37%.
Take “rabbit monoclonal antibody raised against a peptide from the mature cytokine domain (Abcam ab179695)”: the % GFP+/APC+ cells in assay [2] turned out to be 68.9%; in assay [3], 1.5%; in assay [4] it was 65.2%; in assay [5], 78.3%; in assay [6], 0.5%; in assay [7], 47.2%. For the same substance, the % GFP+/APC+ cells in assay [8] turned out to be 46.3%; in assay [9] it was 0.6%; in assay [10], 76.7%; in [11], 7.5%; in [12], 79.1%; in [13] it was 56.2%. This substance also came in with a % GFP+/APC+ cells in [14] of 11.9%.

Source of the values: patent publication US20220017612A1.
